T1: Abp1, P15891
T1 sequence (P15891 535-592, looked up): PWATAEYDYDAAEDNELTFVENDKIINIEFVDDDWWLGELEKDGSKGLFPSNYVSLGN

T2: Bbc1, P47068
T2 sequence (P47068 1-78, looked up): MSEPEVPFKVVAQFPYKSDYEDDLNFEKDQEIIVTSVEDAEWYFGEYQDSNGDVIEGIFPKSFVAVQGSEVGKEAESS

T3: Boi1, P38041
T3 sequence (P38041 1-86, looked up): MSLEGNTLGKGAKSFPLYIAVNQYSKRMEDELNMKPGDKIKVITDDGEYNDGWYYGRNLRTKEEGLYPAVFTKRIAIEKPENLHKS

T4: Boi2, P39969
T4 sequence (P39969 32-116, looked up): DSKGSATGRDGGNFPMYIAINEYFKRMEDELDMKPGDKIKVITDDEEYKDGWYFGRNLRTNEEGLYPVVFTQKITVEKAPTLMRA

T5: Bud14, P27637
T5 sequence (P27637 247-328, looked up): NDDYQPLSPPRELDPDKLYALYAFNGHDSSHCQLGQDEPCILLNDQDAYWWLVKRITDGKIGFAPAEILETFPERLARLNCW

T6: Bzz1-1, P38822
T6 sequence (P38822 478-572, looked up): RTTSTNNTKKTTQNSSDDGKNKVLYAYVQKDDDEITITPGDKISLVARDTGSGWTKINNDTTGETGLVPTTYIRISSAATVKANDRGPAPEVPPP

T7: Bzz1-2, P38822
T7 sequence (P38822 568-633, looked up): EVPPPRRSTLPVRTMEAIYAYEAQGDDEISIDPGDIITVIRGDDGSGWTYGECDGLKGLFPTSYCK

T8: Cdc25, P04821
T8 sequence (P04821 50-136, looked up): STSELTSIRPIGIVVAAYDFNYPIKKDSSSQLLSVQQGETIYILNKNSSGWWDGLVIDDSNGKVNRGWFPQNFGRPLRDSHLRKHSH

T9: Cyk3, Q07533
T9 sequence (Q07533 1-83, looked up): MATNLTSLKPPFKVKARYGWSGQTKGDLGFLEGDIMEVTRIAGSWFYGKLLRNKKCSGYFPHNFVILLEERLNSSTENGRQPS

T10: Fus1, P11710
T10 sequence (P11710 432-512, looked up): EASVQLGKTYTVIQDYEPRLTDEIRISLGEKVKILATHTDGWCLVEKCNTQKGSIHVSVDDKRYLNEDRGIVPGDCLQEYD

T11: Hof1, Q05080
T11 sequence (Q05080 590-669, looked up): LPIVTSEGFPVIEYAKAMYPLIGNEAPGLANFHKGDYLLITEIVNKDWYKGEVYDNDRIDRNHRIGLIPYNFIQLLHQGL

T12: Hse1, P38753
T12 sequence (P38753 208-285, looked up): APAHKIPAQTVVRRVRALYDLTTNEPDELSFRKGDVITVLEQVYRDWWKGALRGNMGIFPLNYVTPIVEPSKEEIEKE

T13: Lsb1, P53281
T13 sequence (P53281 45-122, looked up): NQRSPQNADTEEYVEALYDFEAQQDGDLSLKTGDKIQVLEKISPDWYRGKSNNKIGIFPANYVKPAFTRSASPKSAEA

T14: Lsb3, P43603
T14 sequence (P43603 385-451, looked up): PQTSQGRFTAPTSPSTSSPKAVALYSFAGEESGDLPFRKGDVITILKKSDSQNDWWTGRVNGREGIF

T15: Lsb4, P32793
T15 sequence (P32793 402-468, looked up): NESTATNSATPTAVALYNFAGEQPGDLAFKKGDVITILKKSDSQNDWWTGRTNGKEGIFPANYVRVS

T16: Myo5, Q04439
T16 sequence (Q04439 1072-1160, looked up): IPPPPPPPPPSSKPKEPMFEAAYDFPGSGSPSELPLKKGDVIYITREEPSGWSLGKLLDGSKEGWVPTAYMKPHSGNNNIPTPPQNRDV

T17: Nbp2, Q12163
T17 sequence (Q12163 103-180, looked up): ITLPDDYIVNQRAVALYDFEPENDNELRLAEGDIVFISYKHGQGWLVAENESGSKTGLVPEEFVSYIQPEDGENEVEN

T18: Pex13, P80667
T18 sequence (P80667 295-386, looked up): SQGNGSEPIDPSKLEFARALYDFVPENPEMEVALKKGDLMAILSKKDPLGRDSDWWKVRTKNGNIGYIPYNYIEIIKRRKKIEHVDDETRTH

T19: Pin3, Q06449
T19 sequence (Q06449 53-122, looked up): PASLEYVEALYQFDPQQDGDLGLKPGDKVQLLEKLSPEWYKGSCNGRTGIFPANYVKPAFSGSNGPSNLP

T20: Sla1-2, P32790
T20 sequence (P32790 60-140, looked up): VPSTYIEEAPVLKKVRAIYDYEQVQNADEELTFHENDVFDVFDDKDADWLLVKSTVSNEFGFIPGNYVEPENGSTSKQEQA

T21: Sla1-3, P32790
T21 sequence (P32790 344-424, looked up): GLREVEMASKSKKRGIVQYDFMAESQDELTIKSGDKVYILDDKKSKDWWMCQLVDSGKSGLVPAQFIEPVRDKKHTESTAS


Each binder was assayed against T1, Abp1, P15891 (assay: SPOT array). Conditions: median of control spots 935.

Row | Binder | SPOT intensity
1 | TSIEIPKRSPLRFTS | 60
2 | RSKRLFPVRPMATAH | 110

These binders were tested against T2, Bbc1, P47068 (assay: SPOT array). Conditions: median of control spots 796.

Row | Binder | SPOT intensity
3 | TSIEIPKRSPLRFTS | 12
4 | RSKRLFPVRPMATAH | 49

What follows are binders tested against Bem1-1, P29366 (assay: SPOT array). Conditions: median of control spots 4282.
Chain of Bem1-1, P29366 (P29366 55-141): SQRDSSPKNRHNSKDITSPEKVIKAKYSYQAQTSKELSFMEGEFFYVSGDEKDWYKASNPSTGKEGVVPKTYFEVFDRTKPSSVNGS

Row | Binder | SPOT intensity
5 | TSIEIPKRSPLRFTS | 0
6 | RSKRLFPVRPMATAH | 0

The binders below were run against Bem1-2, P29366 (assay: SPOT array). Conditions: median of control spots 4347.
Chain of Bem1-2, P29366 (P29366 139-227): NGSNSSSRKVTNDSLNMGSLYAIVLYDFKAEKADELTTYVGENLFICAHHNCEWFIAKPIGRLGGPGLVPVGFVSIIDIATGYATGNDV

Row | Binder | SPOT intensity
7 | TSIEIPKRSPLRFTS | 0
8 | RSKRLFPVRPMATAH | 14

These binders were tested against T3, Boi1, P38041 (assay: SPOT array). Conditions: median of control spots 1162.

Row | Binder | SPOT intensity
9 | TSIEIPKRSPLRFTS | 3040
10 | RSKRLFPVRPMATAH | 0

What follows are binders tested against T4, Boi2, P39969 (assay: SPOT array). Conditions: median of control spots 1161.

Row | Binder | SPOT intensity
11 | TSIEIPKRSPLRFTS | 2740
12 | RSKRLFPVRPMATAH | 0

What follows are binders tested against T5, Bud14, P27637 (assay: SPOT array). Conditions: median of control spots 956.

Row | Binder | SPOT intensity
13 | TSIEIPKRSPLRFTS | 5
14 | RSKRLFPVRPMATAH | 6

What follows are binders tested against T6, Bzz1-1, P38822 (assay: SPOT array). Conditions: median of control spots 4446.

Row | Binder | SPOT intensity
15 | TSIEIPKRSPLRFTS | 0
16 | RSKRLFPVRPMATAH | 1

The binders below were run against T7, Bzz1-2, P38822 (assay: SPOT array). Conditions: median of control spots 4538.

Row | Binder | SPOT intensity
17 | TSIEIPKRSPLRFTS | 0
18 | RSKRLFPVRPMATAH | 13

The binders below were run against T8, Cdc25, P04821 (assay: SPOT array). Conditions: median of control spots 969.

Row | Binder | SPOT intensity
19 | TSIEIPKRSPLRFTS | 13
20 | RSKRLFPVRPMATAH | 22

What follows are binders tested against T9, Cyk3, Q07533 (assay: SPOT array). Conditions: median of control spots 1451.

Row | Binder | SPOT intensity
21 | TSIEIPKRSPLRFTS | 0
22 | RSKRLFPVRPMATAH | 0

These binders were tested against T10, Fus1, P11710 (assay: SPOT array). Conditions: median of control spots 1200.

Row | Binder | SPOT intensity
23 | TSIEIPKRSPLRFTS | 0
24 | RSKRLFPVRPMATAH | 17

These binders were tested against GST (assay: SPOT array). Conditions: median of control spots 978.

Row | Binder | SPOT intensity
25 | TSIEIPKRSPLRFTS | 0
26 | RSKRLFPVRPMATAH | 0

What follows are binders tested against T11, Hof1, Q05080 (assay: SPOT array). Conditions: median of control spots 4086.

Row | Binder | SPOT intensity
27 | TSIEIPKRSPLRFTS | 0
28 | RSKRLFPVRPMATAH | 7

Each binder was assayed against T12, Hse1, P38753 (assay: SPOT array). Conditions: median of control spots 1727.

Row | Binder | SPOT intensity
29 | TSIEIPKRSPLRFTS | 0
30 | RSKRLFPVRPMATAH | 12

These binders were tested against T13, Lsb1, P53281 (assay: SPOT array). Conditions: median of control spots 388.

Row | Binder | SPOT intensity
31 | TSIEIPKRSPLRFTS | 0
32 | RSKRLFPVRPMATAH | 5

The binders below were run against T14, Lsb3, P43603 (assay: SPOT array). Conditions: median of control spots 406.

Row | Binder | SPOT intensity
33 | TSIEIPKRSPLRFTS | 5
34 | RSKRLFPVRPMATAH | 4

Each binder was assayed against T15, Lsb4, P32793 (assay: SPOT array). Conditions: median of control spots 397.

Row | Binder | SPOT intensity
35 | TSIEIPKRSPLRFTS | 8
36 | RSKRLFPVRPMATAH | 15

The binders below were run against Myo3, P36006 (assay: SPOT array). Conditions: median of control spots 468.

Row | Binder | SPOT intensity
37 | TSIEIPKRSPLRFTS | 4
38 | RSKRLFPVRPMATAH | 2

What follows are binders tested against T16, Myo5, Q04439 (assay: SPOT array). Conditions: median of control spots 471.

Row | Binder | SPOT intensity
39 | TSIEIPKRSPLRFTS | 2
40 | RSKRLFPVRPMATAH | 2

These binders were tested against T17, Nbp2, Q12163 (assay: SPOT array). Conditions: median of control spots 357.

Row | Binder | SPOT intensity
41 | TSIEIPKRSPLRFTS | 0
42 | RSKRLFPVRPMATAH | 46

What follows are binders tested against T18, Pex13, P80667 (assay: SPOT array). Conditions: median of control spots 1341.

Row | Binder | SPOT intensity
43 | TSIEIPKRSPLRFTS | 19
44 | RSKRLFPVRPMATAH | 11

Each binder was assayed against T19, Pin3, Q06449 (assay: SPOT array). Conditions: median of control spots 2171.

Row | Binder | SPOT intensity
45 | TSIEIPKRSPLRFTS | 10
46 | RSKRLFPVRPMATAH | 12

Each binder was assayed against Rvs167, P39743 (assay: SPOT array). Conditions: median of control spots 2707.
Chain of Rvs167, P39743 (P39743 419-482): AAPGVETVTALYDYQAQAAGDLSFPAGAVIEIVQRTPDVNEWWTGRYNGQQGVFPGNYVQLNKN

Row | Binder | SPOT intensity
47 | TSIEIPKRSPLRFTS | 0
48 | RSKRLFPVRPMATAH | 9

Each binder was assayed against Sho1, P40073 (assay: SPOT array). Conditions: median of control spots 1148.
Chain of Sho1, P40073 (P40073 287-367): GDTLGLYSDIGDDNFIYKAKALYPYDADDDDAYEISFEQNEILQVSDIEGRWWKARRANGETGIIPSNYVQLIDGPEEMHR

Row | Binder | SPOT intensity
49 | TSIEIPKRSPLRFTS | 8
50 | RSKRLFPVRPMATAH | 90

These binders were tested against T20, Sla1-2, P32790 (assay: SPOT array). Conditions: median of control spots 712.

Row | Binder | SPOT intensity
51 | TSIEIPKRSPLRFTS | 792
52 | RSKRLFPVRPMATAH | 0

These binders were tested against T21, Sla1-3, P32790 (assay: SPOT array). Conditions: median of control spots 5475.

Row | Binder | SPOT intensity
53 | TSIEIPKRSPLRFTS | 0
54 | RSKRLFPVRPMATAH | 36

From article PMC2756588
